Measurements published in PMC4834642, “Orthogonal ring-closing alkyne and olefin metathesis for the synthesis of small GTPase-targeting bicyclic peptides” (Nature Communications, 2016).
Each block holds one binder with its values, some of them ahead of it.

Tests used:
[1] = target: T1, peptide 21 (Homo sapiens, UniProt Q6IQ26); assay: fluorescence polarization
T1 chain: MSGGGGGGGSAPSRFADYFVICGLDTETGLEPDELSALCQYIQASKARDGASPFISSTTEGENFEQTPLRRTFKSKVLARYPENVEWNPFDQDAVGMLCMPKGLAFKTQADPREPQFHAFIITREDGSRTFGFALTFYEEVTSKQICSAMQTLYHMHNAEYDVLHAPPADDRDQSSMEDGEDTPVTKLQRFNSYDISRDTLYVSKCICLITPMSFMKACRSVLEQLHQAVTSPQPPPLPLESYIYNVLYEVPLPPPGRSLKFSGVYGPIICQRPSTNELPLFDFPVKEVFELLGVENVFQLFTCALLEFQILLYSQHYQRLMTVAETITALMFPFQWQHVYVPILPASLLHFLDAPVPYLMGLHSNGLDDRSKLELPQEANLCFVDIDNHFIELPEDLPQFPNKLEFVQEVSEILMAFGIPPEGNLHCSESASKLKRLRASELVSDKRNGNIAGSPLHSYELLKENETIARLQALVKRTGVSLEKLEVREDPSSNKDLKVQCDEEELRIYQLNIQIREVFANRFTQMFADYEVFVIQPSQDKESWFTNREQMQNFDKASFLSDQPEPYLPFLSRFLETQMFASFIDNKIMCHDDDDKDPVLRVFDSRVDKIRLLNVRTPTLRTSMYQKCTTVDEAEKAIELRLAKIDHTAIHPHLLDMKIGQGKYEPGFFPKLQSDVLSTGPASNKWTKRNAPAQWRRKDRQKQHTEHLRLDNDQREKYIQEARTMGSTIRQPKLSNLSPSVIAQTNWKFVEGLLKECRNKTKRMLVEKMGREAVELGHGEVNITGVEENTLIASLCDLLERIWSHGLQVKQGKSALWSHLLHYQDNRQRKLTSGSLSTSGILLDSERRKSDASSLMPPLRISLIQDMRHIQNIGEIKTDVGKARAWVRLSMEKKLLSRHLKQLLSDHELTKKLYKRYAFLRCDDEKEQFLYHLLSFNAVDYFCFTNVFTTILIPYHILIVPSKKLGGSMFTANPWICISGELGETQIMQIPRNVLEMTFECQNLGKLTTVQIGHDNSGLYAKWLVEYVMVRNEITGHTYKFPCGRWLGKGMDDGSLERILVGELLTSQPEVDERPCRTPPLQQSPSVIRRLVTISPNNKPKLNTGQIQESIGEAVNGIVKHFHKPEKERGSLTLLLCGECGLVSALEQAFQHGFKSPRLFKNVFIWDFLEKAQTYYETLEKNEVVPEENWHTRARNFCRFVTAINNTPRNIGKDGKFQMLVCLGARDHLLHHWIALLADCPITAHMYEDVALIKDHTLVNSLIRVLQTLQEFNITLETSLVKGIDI

[2] = target: T2, peptide 25 (Homo sapiens, UniProt Q6IQ26); assay: microscale thermophoresis (fluorescence intensity)
T2 chain: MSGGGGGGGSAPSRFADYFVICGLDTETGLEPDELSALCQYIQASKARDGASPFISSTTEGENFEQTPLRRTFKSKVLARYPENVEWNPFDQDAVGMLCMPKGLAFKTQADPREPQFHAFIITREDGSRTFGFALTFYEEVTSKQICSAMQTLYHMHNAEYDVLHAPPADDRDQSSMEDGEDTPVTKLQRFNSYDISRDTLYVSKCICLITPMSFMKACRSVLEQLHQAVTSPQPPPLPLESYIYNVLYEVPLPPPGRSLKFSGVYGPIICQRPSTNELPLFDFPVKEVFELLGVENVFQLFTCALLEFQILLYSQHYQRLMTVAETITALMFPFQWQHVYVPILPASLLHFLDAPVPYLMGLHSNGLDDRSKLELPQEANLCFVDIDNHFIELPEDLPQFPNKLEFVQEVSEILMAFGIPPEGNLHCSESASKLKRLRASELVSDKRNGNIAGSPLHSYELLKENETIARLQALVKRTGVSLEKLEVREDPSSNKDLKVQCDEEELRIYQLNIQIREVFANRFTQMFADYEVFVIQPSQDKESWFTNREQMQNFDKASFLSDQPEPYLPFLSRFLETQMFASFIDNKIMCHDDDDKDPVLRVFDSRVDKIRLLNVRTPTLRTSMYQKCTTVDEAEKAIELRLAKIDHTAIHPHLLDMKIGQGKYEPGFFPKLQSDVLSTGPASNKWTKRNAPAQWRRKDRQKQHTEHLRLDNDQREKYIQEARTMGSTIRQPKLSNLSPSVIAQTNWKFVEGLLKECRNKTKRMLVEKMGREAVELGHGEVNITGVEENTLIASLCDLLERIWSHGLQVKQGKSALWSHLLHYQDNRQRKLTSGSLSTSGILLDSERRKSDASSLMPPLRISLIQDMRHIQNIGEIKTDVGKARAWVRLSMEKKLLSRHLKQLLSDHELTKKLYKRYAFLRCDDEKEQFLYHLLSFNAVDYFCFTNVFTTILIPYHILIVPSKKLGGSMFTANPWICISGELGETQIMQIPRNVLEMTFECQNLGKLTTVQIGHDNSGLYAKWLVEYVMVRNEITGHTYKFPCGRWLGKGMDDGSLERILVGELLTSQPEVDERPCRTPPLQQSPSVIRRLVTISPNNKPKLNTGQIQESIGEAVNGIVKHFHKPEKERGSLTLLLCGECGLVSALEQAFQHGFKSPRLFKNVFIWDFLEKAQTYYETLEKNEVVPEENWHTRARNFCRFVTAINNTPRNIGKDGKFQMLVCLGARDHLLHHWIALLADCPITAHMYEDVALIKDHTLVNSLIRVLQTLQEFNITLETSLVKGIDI

[3] = target: T2, peptide 25; assay: fluorescence polarization
[4] = target: T3, StRIP3 (Homo sapiens, UniProt Q6IQ26); assay: competition fluorescence polarization
T3 chain: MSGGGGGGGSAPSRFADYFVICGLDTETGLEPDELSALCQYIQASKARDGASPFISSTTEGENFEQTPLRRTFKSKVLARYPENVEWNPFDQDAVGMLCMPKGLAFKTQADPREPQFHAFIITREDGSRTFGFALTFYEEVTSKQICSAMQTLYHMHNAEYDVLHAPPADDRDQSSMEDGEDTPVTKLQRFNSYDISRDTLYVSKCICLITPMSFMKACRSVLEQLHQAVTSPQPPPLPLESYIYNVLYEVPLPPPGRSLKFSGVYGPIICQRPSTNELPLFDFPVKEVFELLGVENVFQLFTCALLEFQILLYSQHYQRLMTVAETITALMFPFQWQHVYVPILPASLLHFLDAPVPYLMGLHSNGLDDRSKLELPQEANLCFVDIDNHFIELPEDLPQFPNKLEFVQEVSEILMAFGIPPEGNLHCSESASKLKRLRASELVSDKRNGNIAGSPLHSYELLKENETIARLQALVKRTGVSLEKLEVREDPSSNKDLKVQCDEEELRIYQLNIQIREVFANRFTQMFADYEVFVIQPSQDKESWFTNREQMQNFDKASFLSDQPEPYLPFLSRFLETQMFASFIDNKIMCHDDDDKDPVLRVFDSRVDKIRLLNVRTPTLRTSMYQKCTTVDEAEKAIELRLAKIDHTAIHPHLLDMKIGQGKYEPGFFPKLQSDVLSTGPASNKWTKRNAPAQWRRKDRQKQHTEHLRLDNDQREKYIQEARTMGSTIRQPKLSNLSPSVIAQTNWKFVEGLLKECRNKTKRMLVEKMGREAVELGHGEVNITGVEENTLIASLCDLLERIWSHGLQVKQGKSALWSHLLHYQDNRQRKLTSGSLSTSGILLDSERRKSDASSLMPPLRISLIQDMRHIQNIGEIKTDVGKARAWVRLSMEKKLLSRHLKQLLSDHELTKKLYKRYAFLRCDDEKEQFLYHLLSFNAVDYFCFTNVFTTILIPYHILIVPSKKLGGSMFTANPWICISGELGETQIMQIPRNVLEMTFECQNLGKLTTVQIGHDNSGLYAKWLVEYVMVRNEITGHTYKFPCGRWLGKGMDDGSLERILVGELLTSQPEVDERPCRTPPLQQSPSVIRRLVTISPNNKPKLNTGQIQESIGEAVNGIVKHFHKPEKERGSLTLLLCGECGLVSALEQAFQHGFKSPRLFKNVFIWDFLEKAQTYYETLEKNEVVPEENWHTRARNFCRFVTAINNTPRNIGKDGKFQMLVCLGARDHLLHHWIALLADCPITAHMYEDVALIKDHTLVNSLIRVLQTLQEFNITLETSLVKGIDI

[5] = target: T3, StRIP3; assay: fluorescence polarization

IC50 [4]: 33 µM
B3: Rab8a 6-176 (protein)
chain: DYLFKLLLIGDSGVGKTCVLFRFSEDAFNSTFISTIGIDFKIRTIELDGKRIKLQIWDTAGQERFRTITTAYYRGAMGIMLVYDITNEKSFDNIRNWIRNIEEHASADVEKMILGNKCDVNDKRQVSKERGEKLALDYGIKFMETSAKANINVENAFFTLARDIKAKMDKK
modifications: GppNHp-bound Rab8a; acetylated i,i+4 olefin hydrocarbon-stapled peptide

Kd [5]: 20.7 µM
B4: Rab8a 6-176 (protein)
chain: DYLFKLLLIGDSGVGKTCVLFRFSEDAFNSTFISTIGIDFKIRTIELDGKRIKLQIWDTAGQERFRTITTAYYRGAMGIMLVYDITNEKSFDNIRNWIRNIEEHASADVEKMILGNKCDVNDKRQVSKERGEKLALDYGIKFMETSAKANINVENAFFTLARDIKAKMDKK
modifications: GppNHp-bound Rab8a; i,i+4 olefin hydrocarbon-stapled peptide, fluorescein-PEG label

More lines, now with the values behind:

B1: Rab8a 6-176 (protein)
chain: DYLFKLLLIGDSGVGKTCVLFRFSEDAFNSTFISTIGIDFKIRTIELDGKRIKLQIWDTAGQERFRTITTAYYRGAMGIMLVYDITNEKSFDNIRNWIRNIEEHASADVEKMILGNKCDVNDKRQVSKERGEKLALDYGIKFMETSAKANINVENAFFTLARDIKAKMDKK
modifications: GppNHp-bound Rab8a; dibrominated olefin macrocyclic StRIP3 derivative, fluorescein-PEG label
Kd [1]: 10.7 µM

B2: Rab8a 6-176 (protein)
chain: DYLFKLLLIGDSGVGKTCVLFRFSEDAFNSTFISTIGIDFKIRTIELDGKRIKLQIWDTAGQERFRTITTAYYRGAMGIMLVYDITNEKSFDNIRNWIRNIEEHASADVEKMILGNKCDVNDKRQVSKERGEKLALDYGIKFMETSAKANINVENAFFTLARDIKAKMDKK
modifications: GppNHp-bound Rab8a; bicyclic olefin/alkyne crosslinked StRIP3 derivative, fluorescein-PEG label
Kd [2]: 11 µM
Kd [3]: 6.6 µM
